PMC3834822, “Structure of an ‘open’ clamp type II topoisomerase-DNA complex provides a mechanism for DNA capture and transport”

B1: 34mer V-site DNA (dsDNA)
DNA 1: CAAAGGCGGTAATACGGTTATCCACAGAATCAGG
DNA 2: CCTGATTCTGTGGATAACCGTATTACCGCCTTTG
B2: 26mer E-site DNA (dsDNA)
DNA 1: AGGTCATGAATGACTATGCACGTAAA
DNA 2: TTTACGTGCATAGTCATTCATGACCT

What was measured:
[1] = molecular target: ParE-ParC55 fusion protein (topo IV) (Streptococcus pneumoniae 7785, UniProt Q59961 1-647+P72525:1-488, internal_change); assay: X-ray crystallography (3.7 A); 10 mM MgCl2, 2 mM levofloxacin added; drug-free complex; G-gate DNA bent, uncleaved; second linear B-form duplex at C-gate helices (ParC R468, K464, N461, H196); no ATP; Crystallization: protein in 20 mM Tris-HCl pH 7.5, 100 mM NaCl, 1 mM beta-mercaptoethanol, 0.05% Na azide, 10 mM MgCl2, 2 mM levofloxacin; 4I3H reservoir 50 mM; conditions: protein: recombinant; tags: C-terminal His6; chain copies: 2; 34 bp duplex; 4-bp stagger between cleavage sites
[2] = molecular target: ParE full-length;ParC55 (Streptococcus pneumoniae;Streptococcus …, UniProt Q59961;P72525 1-647;1-488, |); assay: X-ray crystallography (6.5 A); 10 mM MgCl2, 2 mM levofloxacin; cleavage complex; Crystallization: protein in 20 mM Tris-HCl pH 7.5, 100 mM NaCl, 1 mM beta-mercaptoethanol, 0.05% Na azide, 10 mM MgCl2, 2 mM levofloxacin; 4I3H reservoir 50 mM; conditions: protein: recombinant;recombinant; chain copies: 2;2; 26mer duplex; 4-bp stagger between cleavage sites

Binder	binding result [1]	binding result [2]
B1	binds	
B2		binds
